{"source": "paper PMC10977697", "about": "(PLOS ONE, 2024)", "key": {"PCSK9": {"biological_target": "T1, PCSK9 (human, UniProt Q8NBP7 31-692, biotin on lysines (Sulfo-NHS-LC-biotin))", "T1 construct": "also called PCSK9FL; hPCSK9 FL", "T1 sequence (Q8NBP7 31-692)": "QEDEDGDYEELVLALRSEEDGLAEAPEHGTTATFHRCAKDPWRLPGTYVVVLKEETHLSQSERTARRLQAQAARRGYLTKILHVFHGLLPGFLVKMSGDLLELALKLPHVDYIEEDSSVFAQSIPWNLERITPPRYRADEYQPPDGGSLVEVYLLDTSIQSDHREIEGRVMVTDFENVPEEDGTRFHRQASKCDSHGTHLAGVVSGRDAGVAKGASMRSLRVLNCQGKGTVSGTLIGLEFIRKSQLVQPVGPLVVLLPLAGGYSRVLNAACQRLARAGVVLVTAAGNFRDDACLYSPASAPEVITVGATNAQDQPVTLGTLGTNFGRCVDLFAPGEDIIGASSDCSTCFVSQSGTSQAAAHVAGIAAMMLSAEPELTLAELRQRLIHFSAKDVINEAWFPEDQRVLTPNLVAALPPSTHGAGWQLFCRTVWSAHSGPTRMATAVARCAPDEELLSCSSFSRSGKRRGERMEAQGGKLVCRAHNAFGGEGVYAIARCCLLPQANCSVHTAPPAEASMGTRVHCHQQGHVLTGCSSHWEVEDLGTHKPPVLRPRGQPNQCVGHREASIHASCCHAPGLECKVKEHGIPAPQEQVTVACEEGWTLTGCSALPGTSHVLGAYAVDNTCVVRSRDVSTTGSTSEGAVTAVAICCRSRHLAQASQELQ", "assay": "SPR", "conditions": "both partners purified"}, "[1]": {"biological_target": "T2, PCSK9ΔCRD (PCSK9 lacking the C-terminal Cys-rich domain CRD) (human, UniProt Q8NBP7 31-452, biotin on lysines (Sulfo-NHS-LC-biotin))", "T2 construct": "also called PCSK9DCRD; PCSK9dCRDTEV", "T2 sequence (Q8NBP7 31-452, stated change not applied)": "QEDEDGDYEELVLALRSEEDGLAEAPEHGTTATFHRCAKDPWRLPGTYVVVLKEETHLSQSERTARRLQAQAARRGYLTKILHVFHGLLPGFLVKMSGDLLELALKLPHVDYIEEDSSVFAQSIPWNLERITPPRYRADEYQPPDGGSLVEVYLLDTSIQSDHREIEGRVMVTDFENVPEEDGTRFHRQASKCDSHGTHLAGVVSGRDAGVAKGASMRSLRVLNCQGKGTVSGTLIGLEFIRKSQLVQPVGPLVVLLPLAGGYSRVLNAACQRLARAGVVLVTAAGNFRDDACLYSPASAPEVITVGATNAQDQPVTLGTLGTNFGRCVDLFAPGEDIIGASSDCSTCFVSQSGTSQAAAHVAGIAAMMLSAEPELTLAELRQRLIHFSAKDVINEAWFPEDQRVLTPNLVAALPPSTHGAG", "assay": "ELISA", "conditions": "one partner purified"}}}
{"binder": "ECKGKGAKCSYYMGIDKGYVNYCCTGSCRSGKC (designed binder, Conotoxin-MVIIA scaffold)", "note": "[PCSK9_CnTx1]", "values": [{"measurement": "Kd", "setting": "PCSK9", "result": 4.5, "unit": "µM"}]}
{"binder": "ECKGKGAKCSYYMGIDKGYVNYCCTGSCRSGKC (designed binder, Conotoxin-MVIIA scaffold)", "note": "[PCSK9_CnTx1 displayed on M13 phage]", "values": [{"measurement": "ELISA", "setting": "[1]", "result": 2}, {"measurement": "s/n Ratio", "setting": "[1]", "result": 29.7}]}
